Experimental data as given in patent US20240216517A1 (CELLEMEDY, published 2024).

Target: T1, human transferrin receptor-Fc tag standard (human, UniProt P02786 89-760)
T1 construct: This is a bought standard coated on the ELISA plate; also called hTfR; not shown: Fc tag
Test: ELISA, human transferrin receptor-Fc coated on the plate; Kd calculated from an expected saturation point, curve not saturated at 10000 nM
Experimental: Then, it was washed 3 times with 200 μl of PBST (PBS+Tween0.05%). An antibody (mouse anti-His tag antibody, Hisprobe) that specifically binds to the hexa-His tag was diluted 1/1000 in PBST, and the diluted solution was treated by 100 μl at room temperature for 1 hour.
Then, it was washed 3 times with 200 μl of PBST (PBS+Tween0.05%). TMB solution expressing coloration by reacting with HRP was treated by 100 μl at room temperature for 15 minutes. After 50 μl of 1M H₂SO₄ solution was treated, optical density was measured with TECAN at a wavelength of 450 nm. This was calculated using the Langmuir equation (Table 5, FIGS. 8 to 10).
FIG. 11 illustrates results of evaluation/comparison of the binding force of huHF_mutant1-dual and huHF_mutant2-dual to hTfR.

T1 sequence (P02786 89-760 limits assumed): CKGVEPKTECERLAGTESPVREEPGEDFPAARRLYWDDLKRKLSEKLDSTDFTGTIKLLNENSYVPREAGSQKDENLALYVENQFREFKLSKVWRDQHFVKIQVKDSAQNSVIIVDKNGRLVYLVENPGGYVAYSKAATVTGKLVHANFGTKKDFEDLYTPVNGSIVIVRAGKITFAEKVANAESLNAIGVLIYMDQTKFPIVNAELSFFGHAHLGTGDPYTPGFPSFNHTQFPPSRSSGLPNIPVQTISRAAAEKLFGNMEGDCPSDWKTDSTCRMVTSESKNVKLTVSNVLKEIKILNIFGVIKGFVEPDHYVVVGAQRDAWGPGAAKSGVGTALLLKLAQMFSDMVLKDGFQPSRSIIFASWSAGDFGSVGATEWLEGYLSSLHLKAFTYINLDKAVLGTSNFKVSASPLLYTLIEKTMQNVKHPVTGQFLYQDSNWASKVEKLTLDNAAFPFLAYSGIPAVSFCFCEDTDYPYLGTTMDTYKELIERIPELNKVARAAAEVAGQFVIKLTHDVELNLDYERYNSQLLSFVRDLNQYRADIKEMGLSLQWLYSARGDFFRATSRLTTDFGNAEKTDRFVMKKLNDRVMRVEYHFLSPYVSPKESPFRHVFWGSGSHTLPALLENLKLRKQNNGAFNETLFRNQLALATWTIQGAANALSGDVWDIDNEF

B1: huHF_Mutant2-dual (designed binder)
chain: MTTASTSQVRQNYHAASEAAINAQINLELYASYVYLSMSYYFDRDDVALKNFAKYFLHQSHEEREHAEKLMKLQNQRGGRIALADIQKPDCDGGSYGSLYAFDIDWESGLNAMECALHLEKNVNQSLLALHALATAKNDPHLCDFIETHYLNEQVKAIKELGDHVTNLRKMGAPESGLAEYLFDKHTLGDSDNESMPSFITLASLSTWEGYFDF
notes: It self-assembles into a 24-mer nanoparticle
Kd: ~4.4 µM
